Test results published in the Immune Epitope Database (IEDB).

Experiments:
HLA-A*30:02 = assay: IEDB peptide-MHC binding, purified MHC/competitive/radioactivity; filed as Kd, often an IC50 or EC50 that approximates it; ≥ and ≤ were set here for values at or beyond the usual limits of such assays
HLA-A*01:01 = assay: as above
HLA-A*24:02 = assay: as above
HLA-A*26:01 [1] = assay: as above
HLA-A*23:01 = assay: as above
HLA-A*29:02 = assay: as above
HLA-B*51:01 = assay: as above
HLA-A*30:01 = assay: as above
HLA-A*32:01 = assay: as above
HLA-A*26:01 [2] = assay: IEDB peptide-MHC binding, purified MHC/direct/fluorescence; filed as Kd, often an IC50 or EC50 that approximates it; ≥ and ≤ were set here for values at or beyond the usual limits of such assays; settings: source organism: West Nile virus
HLA-B*53:01 = assay: IEDB peptide-MHC binding, purified MHC/competitive/radioactivity; filed as Kd, often an IC50 or EC50 that approximates it; ≥ and ≤ were set here for values at or beyond the usual limits of such assays
HLA-B*35:01 = assay: as above
[3] = source organism: SARS coronavirus Tor2
[4] = source organism: Dengue virus 4 Philippines/H241/1956
[5] = source organism: Dengue virus 2 Jamaica/1409/1983
[6] = source organism: Mammarenavirus juninense
[7] = source organism: Mammarenavirus guanaritoense
[8] = source organism: Lymphocytic choriomeningitis virus (strain Armstrong)
[9] = source organism: Dengue virus 4 Dominica/814669/1981
[10] = source organism: Dengue virus 3 Martinique/1243/1999

AYATAQEAY
Kd (HLA-A*30:02; [3]): 0.0506 µM
Kd (HLA-A*01:01; [3]): ≥ 98 µM
Kd (HLA-A*24:02; [3]): ≥ 53.9 µM
Kd (HLA-A*26:01 [1]; [3]): ≥ 43.1 µM
Kd (HLA-A*23:01; [3]): ≥ 77.8 µM
Kd (HLA-A*29:02; [3]): 642 nM

AYMLFTKFFY
Kd (HLA-A*01:01; [3]): 0.339 µM
Kd (HLA-A*24:02; [3]): 0.000241 µM
Kd (HLA-A*26:01 [1]; [3]): 0.0835 µM
Kd (HLA-A*23:01; [3]): 0.000115 µM
Kd (HLA-A*29:02; [3]): 0.00115 nM

CKSKNPLLY
Kd (HLA-A*30:02; [3]): 0.199 µM
Kd (HLA-A*01:01; [3]): ≥ 87.7 µM
Kd (HLA-A*24:02; [3]): ≥ 77.6 µM
Kd (HLA-A*26:01 [1]; [3]): ≥ 81.5 µM
Kd (HLA-A*23:01; [3]): ≥ 67.6 µM
Kd (HLA-A*29:02; [3]): 163 nM

CYSQVNPTTL
Kd (HLA-A*24:02; [4]): 0.326 µM
Kd (HLA-A*23:01; [4]): 1.33 µM

DPRRCMKPVI
Kd (HLA-B*51:01; [5]): 9.65 µM

DSSQGSEYDY
Kd (HLA-A*30:02; [3]): 0.151 µM
Kd (HLA-A*01:01; [3]): 0.151 µM
Kd (HLA-A*24:02; [3]): ≥ 70.3 µM
Kd (HLA-A*26:01 [1]; [3]): 7.27 µM
Kd (HLA-A*23:01; [3]): ≥ 70 µM
Kd (HLA-A*29:02; [3]): 1350 nM

EALSGFLQY
Kd (HLA-A*30:01; [6]): ≥ 43.1 µM
Kd (HLA-A*32:01; [6]): ≥ 77.8 µM
Kd (HLA-A*30:02; [6]): 3.95 µM
Kd (HLA-A*01:01; [6]): 11.6 µM
Kd (HLA-A*26:01 [1]; [6]): 1.49 µM
Kd (HLA-A*29:02; [6]): 778 nM

FKPGTSGSPI
Kd (HLA-B*51:01; source organism: Dengue virus 1 Brazil/97-11/1997): 5.75 µM

FLDGVNLVA
Kd (HLA-A*30:02; [7]): 17.7 µM
Kd (HLA-A*01:01; [7]): 0.00976 µM
Kd (HLA-A*24:02; [7]): ≥ 77.5 µM
Kd (HLA-A*26:01 [1]; [7]): ≥ 77.9 µM
Kd (HLA-A*23:01; [7]): 8.81 µM
Kd (HLA-A*29:02; [7]): 5430 nM

FMMSRRRLL
Kd (HLA-A*30:02; [3]): 6.73 µM
Kd (HLA-A*01:01; [3]): ≥ 78.1 µM
Kd (HLA-A*24:02; [3]): 1.41 µM
Kd (HLA-A*26:01 [1]; [3]): ≥ 77.9 µM
Kd (HLA-A*23:01; [3]): 0.496 µM
Kd (HLA-A*29:02; [3]): 2620 nM

FSKSRSTLMY
Kd (HLA-A*30:01; [8]): 0.377 µM
Kd (HLA-A*32:01; [8]): ≥ 69.9 µM
Kd (HLA-A*30:02; [8]): 0.993 µM
Kd (HLA-A*01:01; [8]): 0.0685 µM
Kd (HLA-A*26:01 [1]; [8]): 0.878 µM
Kd (HLA-A*29:02; [8]): 333 nM

GAEHVDTSY
Kd (HLA-A*30:02; [3]): 2.9 µM
Kd (HLA-A*01:01; [3]): 0.398 µM
Kd (HLA-A*24:02; [3]): ≥ 77.6 µM
Kd (HLA-A*26:01 [1]; [3]): 2.45 µM
Kd (HLA-A*23:01; [3]): ≥ 77.8 µM
Kd (HLA-A*29:02; [3]): 722 nM

HLSRTVVYSY
Kd (HLA-A*30:01; [7]): 0.525 µM
Kd (HLA-A*32:01; [7]): 0.671 µM
Kd (HLA-A*30:02; [7]): 0.0638 µM
Kd (HLA-A*01:01; [7]): 1.33 µM
Kd (HLA-A*26:01 [1]; [7]): 10.6 µM
Kd (HLA-A*29:02; [7]): 1210 nM

HTNEDDSNF
Kd (HLA-A*26:01 [2]): 1.9 µM

IPHDLMELI
Kd (HLA-B*51:01; [9]): 0.0168 µM
Kd (HLA-B*53:01; [9]): 0.0065 µM

LMKITAEWLW
Kd (HLA-B*53:01; [5]): 1.41 µM

LPETMETLLL
Kd (HLA-B*51:01; [10]): 1.17 µM
Kd (HLA-B*35:01; [10]): 1.21 µM
Kd (HLA-B*53:01; [10]): 0.0243 µM

LPLPWAAGAD
Kd (HLA-B*51:01; [4]): ≥ 22.9 µM
Kd (HLA-B*35:01; [4]): 4.14 µM
